Consider two molecules from publication PMC9409277, “Ethyl Vinyl Ketone Activates K^+ Efflux to Regulate Stomatal Closure by MRP4-Dependent eATP Accumulation Working Upstream of H2O2 Burst in Arabidopsis” (International Journal of Molecular Sciences, 2022).

Assay [1] concerns the target T1, RBOHF-His (RBOHF residues 1-387 in pET28A) (Arabidopsis, UniProt O48538 1-387).
T1 construct: RBOHF of Arabidopsis (AT1G64060), residues 1-387; Cloned into pET28A via EcoRI/XhoI; also called RBOHF with His tag; source: E. coli Rosetta (DE3)
T1 sequence (looked up): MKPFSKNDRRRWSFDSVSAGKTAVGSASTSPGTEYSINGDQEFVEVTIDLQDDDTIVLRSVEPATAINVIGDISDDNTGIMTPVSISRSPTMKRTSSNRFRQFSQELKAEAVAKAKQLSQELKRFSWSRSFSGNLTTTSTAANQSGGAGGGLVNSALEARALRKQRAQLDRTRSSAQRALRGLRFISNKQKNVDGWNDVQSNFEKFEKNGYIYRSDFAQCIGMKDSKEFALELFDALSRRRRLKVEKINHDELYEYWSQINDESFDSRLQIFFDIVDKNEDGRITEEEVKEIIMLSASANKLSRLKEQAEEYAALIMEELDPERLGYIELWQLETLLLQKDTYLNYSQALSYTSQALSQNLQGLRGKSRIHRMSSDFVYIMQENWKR
Description: pull-down; glutathione beads with 50 µg DORN1-GST or GST incubated with 50 µg RBOHF-His; 1% NP40, 150 mM NaCl, 50 mM Tris-HCl, 1 mM EDTA, pH 7.5; 4 °C, 2 h; immunoblot with anti-GST and anti-His. To be noted: both partners purified.

Assay [2] deals with T2, DORN1-GST (DORN1 residues 344-616 in pGEX-4T-1) (Arabidopsis thaliana (Mouse-ear cress), UniProt Q9LSR8).
T2 chain: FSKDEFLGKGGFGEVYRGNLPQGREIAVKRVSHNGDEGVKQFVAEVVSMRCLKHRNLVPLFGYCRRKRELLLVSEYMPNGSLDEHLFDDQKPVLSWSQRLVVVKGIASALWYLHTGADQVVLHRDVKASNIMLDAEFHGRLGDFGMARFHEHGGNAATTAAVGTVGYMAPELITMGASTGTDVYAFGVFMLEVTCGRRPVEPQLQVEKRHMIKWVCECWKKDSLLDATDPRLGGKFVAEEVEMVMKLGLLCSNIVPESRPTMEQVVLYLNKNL
The assay can be described thus: GST pulldown with anti-His immunoblot.

B1: DORN1-GST (DORN1 residues 344-616 in pGEX-4T-1) (domain or fragment, Arabidopsis, UniProt Q9LSR8 344-616, looked up)
chain: FSKDEFLGKGGFGEVYRGNLPQGREIAVKRVSHNGDEGVKQFVAEVVSMRCLKHRNLVPLFGYCRRKRELLLVSEYMPNGSLDEHLFDDQKPVLSWSQRLVVVKGIASALWYLHTGADQVVLHRDVKASNIMLDAEFHGRLGDFGMARFHEHGGNAATTAAVGTVGYMAPELITMGASTGTDVYAFGVFMLEVTCGRRPVEPQLQVEKRHMIKWVCECWKKDSLLDATDPRLGGKFVAEEVEMVMKLGLLCSNIVPESRPTMEQVVLYLNKNL
notes: DORN1 of Arabidopsis (AT5G60300), residues 344-616; Printed both as DORN1-GST and as GST–DORN1; cloned into pGEX-4T-1 via EcoRI/XhoI; also called DORN-GST; source: E. coli Rosetta (DE3), on glutathione beads
B1: the binding result in assay [1] was “binds”.

B2: RBOHF-His (RBOHF residues 1-387 in pET28A) (protein)
chain: MKPFSKNDRRRWSFDSVSAGKTAVGSASTSPGTEYSINGDQEFVEVTIDLQDDDTIVLRSVEPATAINVIGDISDDNTGIMTPVSISRSPTMKRTSSNRFRQFSQELKAEAVAKAKQLSQELKRFSWSRSFSGNLTTTSTAANQSGGAGGGLVNSALEARALRKQRAQLDRTRSSAQRALRGLRFISNKQKNVDGWNDVQSNFEKFEKNGYIYRSDFAQCIGMKDSKEFALELFDALSRRRRLKVEKINHDELYEYWSQINDESFDSRLQIFFDIVDKNEDGRITEEEVKEIIMLSASANKLSRLKEQAEEYAALIMEELDPERLGYIELWQLETLLLQKDTYLNYSQALSYTSQALSQNLQGLRGKSRIHRMSSDFVYIMQENWKR
B2: the binding result in assay [2] is “binds”.
